± gives the standard deviation of the averaged measurements.
Tests used:
Saccharomyces cerevisiae [1] = test: protein stability index of tFT-peptide fusion (C-terminal peptide) (PSI (0-1 scale)); higher = more stable (slower turnover); conditions: genetic background: wild type; temperature: 30 C
Saccharomyces cerevisiae [2] = test: as above
Method: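 MPS profiling in S. cerevisiae of the tFT-X12 degron library: putative degron peptides plus stable controls, 12 aa, fused to the C-terminus of a sfGFP-mCherry timer. Cells are FACS-sorted into 8 mCherry/sfGFP bins and deep-sequenced. PSI runs from 0 (unstable) to 1 (stable). Backgrounds are wild type, das1Δ and doa10Δ at 30 °C, and wild type, das1Δ, cdc34-1 and cdc53-1 at 37 °C; 2-3 technical replicates each.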

[3] = genetic background: cdc34-1, temperature: 37 C
[4] = genetic background: cdc53-1, temperature: 37 C
[5] = genetic background: das1 deletion, temperature: 30 C
[6] = genetic background: das1 deletion, temperature: 37 C
[7] = genetic background: doa10 deletion, temperature: 30 C
[8] = genetic background: wild type, temperature: 30 C
[9] = genetic background: wild type, temperature: 37 C
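Further: PSI is a weighted mean of sequencing reads over stability bins, variants kept only with over 10 reads, mCherry proximal and sfGFP distal, peptide attached via GGGS linker.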

Row | Sequence | protein stability index (Saccharomyces cerevisiae [1]) | protein stability index (Saccharomyces cerevisiae [2]; [3]) | protein stability index (Saccharomyces cerevisiae [2]; [4]) | protein stability index (Saccharomyces cerevisiae [2]; [5]) | protein stability index (Saccharomyces cerevisiae [2]; [6]) | protein stability index (Saccharomyces cerevisiae [2]; [7]) | protein stability index (Saccharomyces cerevisiae [2]; [8]) | protein stability index (Saccharomyces cerevisiae [2]; [9])
1 | FCCSVFCFLCLY | 0.504 ± 0.049 | 0.562 ± 0.044 | 0.548 ± 0.02 | 0.505 ± 0.027 | 0.572 ± 0.0057 | 0.5442 ± 0.001 | 0.492 ± 0.0071 | 0.518 ± 0.019
2 | GYRGRITRLVNG | 0.29 ± 0.035 | 0.661 ± 0.03 | 0.715 ± 0.015 | 0.639 ± 0.0079 | 0.7422 ± 0.00086 | 0.14 ± 0.024 | 0.168 ± 0.021 | 0.369 ± 0.00097
3 | DWTVSYLWVTAL | 0.331 ± 0.015 | 0.534 ± 0.042 | 0.592 ± 0.019 | 0.469 ± 0.025 | 0.599 ± 0.006 | 0.185 ± 0.0044 | 0.208 ± 0.0091 | 0.385 ± 0.02
4 | VWWTLWRVHMLG | 0.243 ± 0.024 | 0.583 ± 0.028 | 0.644 ± 0.0072 | 0.592 ± 0.018 | 0.7151 ± 0.0031 | 0.106 ± 0.03 | 0.142 ± 0.021 | 0.218 ± 0.026
5 | VVAALTPLITVA | 0.261 ± 0.04 | 0.0655 ± 0.023 | 0.084 ± 0.0042 | 0.183 ± 0.021 | 0.202 ± 0.0041 | 0.151 ± 0.011 | 0.179 ± 0.024 | 0.138 ± 0.0061
6 | GTRREFVILYLF | 0.191 ± 0.0076 | 0.544 ± 0.026 | 0.675 ± 0.027 | 0.525 ± 0.016 | 0.694 ± 0.035 | 0.119 ± 0.0081 | 0.133 ± 0.035 | 0.101 ± 0.019
7 | PIKIYGYLTTVV | 0.523 ± 0.045 | 0.597 ± 0.024 | 0.644 ± 0.023 | 0.517 ± 0.032 | 0.653 ± 0.02 | 0.474 ± 0.032 | 0.475 ± 0.02 | 0.6337 ± 0.0023
8 | ARWNTDRRRRQL | 0.421 ± 0.017 | 0.6089 ± 0.0047 | 0.711 ± 0.024 | 0.688 ± 0.045 | 0.7022 ± 0.0017 | 0.236 ± 0.0035 | 0.253 ± 0.034 | 0.502 ± 0.025
9 | LFFWFMYLRRLI | 0.172 ± 0.033 | 0.252 ± 0.019 | 0.238 ± 0.0044 | 0.403 ± 0.041 | 0.524 ± 0.11 | 0.22 ± 0.0085 | 0.151 ± 0.01 | 0.164 ± 0.0084
10 | TVVIFLCSYITT | 0.186 ± 0.0068 | 0.183 ± 0.06 | 0.24 ± 0.11 | 0.139 ± 0.015 | 0.298 ± 0.008 | 0.0829 ± 0.03 | 0.122 ± 0.04 | 0.275 ± 0.019
11 | DWCACFFILLLA | 0.152 ± 0.019 | 0.0391 ± 0.0052 | 0.0382 ± 0.012 | 0.117 ± 0.026 | 0.17 ± 0.016 | 0.145 ± 0.0095 | 0.0983 ± 0.018 | 0.111 ± 0.028
12 | YRGFFIGKLMLV | 0.201 ± 0.013 | 0.488 ± 0.04 | 0.548 ± 0.03 | 0.482 ± 0.035 | 0.63 ± 0.013 | 0.112 ± 0.017 | 0.113 ± 0.018 | 0.216 ± 0.081
13 | KRNLLYNIIVWI | 0.299 ± 0.046 | 0.404 ± 0.024 | 0.476 ± 0.051 | 0.357 ± 0.025 | 0.524 ± 0.021 | 0.171 ± 0.0049 | 0.179 ± 0.016 | 0.288 ± 0.0061
14 | WVFMVILLVFLV | 0.3041 ± 0.0026 | 0.216 ± 0.0073 | 0.268 ± 0.017 | 0.257 ± 0.021 | 0.33 ± 0.038 | 0.28 ± 0.0053 | 0.228 ± 0.022 | 0.315 ± 0.014
15 | WLMVGVDWRFVG | 0.138 ± 0.046 | 0.436 ± 0.0056 | 0.6254 ± 0.0043 | 0.57 ± 0.024 | 0.7086 ± 0.0033 | 0.0725 ± 0.015 | 0.08 ± 0.012 | 0.0927 ± 0.0084
16 | FRHFPLLLSFVR | 0.418 ± 0.062 | 0.428 ± 0.025 | 0.4636 ± 0.0011 | 0.334 ± 0.033 | 0.512 ± 0.01 | 0.324 ± 0.015 | 0.323 ± 0.04 | 0.5 ± 0.0094

Row | Sequence | protein stability index (Saccharomyces cerevisiae [1]) | protein stability index (Saccharomyces cerevisiae [2]; [3]) | protein stability index (Saccharomyces cerevisiae [2]; [4]) | protein stability index (Saccharomyces cerevisiae [2]; [5]) | protein stability index (Saccharomyces cerevisiae [2]; [6]) | protein stability index (Saccharomyces cerevisiae [2]; [7]) | protein stability index (Saccharomyces cerevisiae [2]; [8]) | protein stability index (Saccharomyces cerevisiae [2]; [9])
17 | VRFSAVFVKVGV | 0.4727 ± 0.0026 | 0.547 ± 0.031 | 0.553 ± 0.0091 | 0.395 ± 0.026 | 0.5703 ± 0.0032 | 0.377 ± 0.0083 | 0.402 ± 0.023 | 0.5317 ± 0.0017
18 | FLQIIIFSRVLF | 0.467 ± 0.024 | 0.455 ± 0.013 | 0.543 ± 0.059 | 0.377 ± 0.017 | 0.549 ± 0.0081 | 0.366 ± 0.026 | 0.364 ± 0.031 | 0.52 ± 0.011
19 | CFWLLSSLLLFL | 0.453 ± 0.019 | 0.462 ± 0.016 | 0.474 ± 0.0089 | 0.429 ± 0.017 | 0.5398 ± 0.0016 | 0.492 ± 0.0067 | 0.416 ± 0.034 | 0.514 ± 0.0075
20 | SCLFMLFPLVSV | 0.432 ± 0.0046 | 0.475 ± 0.0048 | 0.505 ± 0.015 | 0.421 ± 0.031 | 0.529 ± 0.01 | 0.412 ± 0.0097 | 0.409 ± 0.033 | 0.5013 ± 0.0033
21 | APASFRVLISAF | 0.136 ± 0.0083 | 0.021 ± 0.0017 | 0.0368 ± 0.0029 | 0.118 ± 0.035 | 0.102 ± 0.013 | 0.0642 ± 0.012 | 0.0969 ± 0.034 | 0.0646 ± 0.018
22 | STVGAWGRVGEG | 0.459 ± 0.025 | 0.435 ± 0.018 | 0.462 ± 0.038 | 0.418 ± 0.035 | 0.484 ± 0.0078 | 0.45024 ± 0.00039 | 0.438 ± 0.016 | 0.472 ± 0.0089
23 | IGWGGGTWVKMG | – | 0.544 ± 0.0058 | 0.7335 ± 0.0016 | 0.654 ± 0.0079 | 0.769 ± 0.015 | 0.0923 ± 0.022 | 0.106 ± 0.023 | 0.166 ± 0.038
24 | SVYLYFQVVAYG | – | 0.0652 ± 0.021 | 0.0815 ± 0.058 | 0.0877 ± 0.049 | 0.198 ± 0.02 | 0.0536 ± 0.021 | 0.0724 ± 0.025 | 0.156 ± 0.0094
25 | LEDVLFVMVINI | – | 0.4551 ± 0.0027 | 0.542 ± 0.028 | 0.308 ± 0.038 | 0.549 ± 0.035 | 0.346 ± 0.012 | 0.292 ± 0.025 | 0.49 ± 0.03
26 | SDGGVVRGGCRG | – | 0.592 ± 0.083 | 0.787 ± 0.012 | 0.519 ± 0.061 | 0.714 ± 0.1 | 0.549 ± 0.081 | 0.512 ± 0.046 | 0.598 ± 0.016
27 | LLSLLLDPLLCL | – | 0.582 ± 0.024 | 0.624 ± 0.0029 | 0.522 ± 0.026 | 0.634 ± 0.015 | 0.521 ± 0.022 | 0.534 ± 0.024 | 0.6166 ± 0.0013
28 | FGWLELVWFDLG | – | 0.646 ± 0.0098 | 0.684 ± 0.031 | 0.525 ± 0.03 | 0.703 ± 0.033 | 0.51 ± 0.034 | 0.531 ± 0.024 | 0.68 ± 0.039
29 | GRWGGYVGREWG | – | 0.497 ± 0.045 | 0.522 ± 0.025 | 0.442 ± 0.0056 | 0.482 ± 0.017 | 0.4402 ± 0.00068 | 0.458 ± 0.0072 | 0.461 ± 0.017
30 | GIFYVRTIWSCG | – | 0.232 ± 0.025 | 0.348 ± 0.0043 | 0.192 ± 0.014 | 0.3813 ± 0.0011 | 0.1446 ± 0.00063 | 0.17 ± 0.017 | 0.332 ± 0.011
31 | GSMGGVGVLGGD | – | 0.544 ± 0.071 | 0.6535 ± 0.0059 | 0.467 ± 0.0086 | 0.5571 ± 0.0043 | 0.486 ± 0.018 | 0.476 ± 0.013 | 0.552 ± 0.018
